For one molecule, Kd results are on record in article PMC10189128 (Frontiers in Cellular and Infection Microbiology, 2023).

The target in this assay is T1, Mouse Fc-fused SARS-CoV-2 RBD (SARS-CoV-2, original strain (Wuhan-Hu-1 …, UniProt P0DTC2)).
T1 construct: source: bought: Sino Biological
As to the kind of experiment: SPR. The conditions noted are these: both partners purified.

B1: anti-SARS-CoV-2 single-chain variable fragment S1-16 (scFv, V domains shown)
VH: QVQLVQSGAEVKKPGASVKVSCKASGYTFTSYYMHWVRQAPGQGLEWMGIINSSGGSTSYAQKFQGRVTMTRDTSTSTVYMELSSLRSEDTAVYYCARPPRNYYDRSGYYQRAEYFQHWGQGTLVTVSS
VL: DIQLTQSPSSLSASVGDRVTITCQASQDISNYLNWYQQRPGKAPKLLIYDASNLETGVPSRFSGSGSGTDFTFTISSLQPEDIATYYCQQYDNPPLTFGGGTKLEIK
notes: also called scFv S1-16; not shown: His6, C-terminal, kept
Broadly, the Kd is the equilibrium constant for the complex coming apart. The low end stands for tighter binding, the high end for weaker binding. In turn, B1 returned a Kd of 135 nM.
